Source: patent publication US20200262877A1, “ION CHANNEL-BINDING PEPTIDES AND METHODS OF USE THEREOF” (priority 2017, published 2020)

Assays:
[1] = target: T1, Kv2.1 (Homo sapiens, UniProt Q14721); test: cell-based; conditions: 100% = no change, <100% = inhibition
T1 construct: host or cells: HEK293 or CHO
How it was run: (§1)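 Peptides were tested in duplicate at final 20 μM and 200 nM, with concentration set by amino acid analysis, in HEPES-buffered saline. They were applied for at least 5 min to HEK293 or CHO cells transfected with each channel. Currents were expressed as % inhibition, 1-(Ipeptide/Icontrol)×100, or % activation, Ipeptide/Icontrol×100, against a channel-matched reference compound.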

[2] = target: T2, Cav2.1 (Homo sapiens, UniProt O00555); test: cell-based; conditions: 100% = no change, <100% = inhibition
T2 construct: host or cells: HEK293 or CHO
How it was run: as §1

[3] = target: T3, Cav2.2 (Homo sapiens, UniProt Q00975); test: cell-based; conditions: 100% = no change, <100% = inhibition
T3 construct: host or cells: HEK293 or CHO
How it was run: as §1

[4] = target: Nav1.5 (Homo sapiens, UniProt Q14524); test: in vitro; conditions: 100% = no change; for Activity of Nav1.5 with peptide, expressed as a percentage of the reference compound: peptide at 0.2 μM; for Activity of Nav1.5 with peptide (percentage of the reference compound): peptide at 20 μM
Chain of Nav1.5 (Q14524 whole entry): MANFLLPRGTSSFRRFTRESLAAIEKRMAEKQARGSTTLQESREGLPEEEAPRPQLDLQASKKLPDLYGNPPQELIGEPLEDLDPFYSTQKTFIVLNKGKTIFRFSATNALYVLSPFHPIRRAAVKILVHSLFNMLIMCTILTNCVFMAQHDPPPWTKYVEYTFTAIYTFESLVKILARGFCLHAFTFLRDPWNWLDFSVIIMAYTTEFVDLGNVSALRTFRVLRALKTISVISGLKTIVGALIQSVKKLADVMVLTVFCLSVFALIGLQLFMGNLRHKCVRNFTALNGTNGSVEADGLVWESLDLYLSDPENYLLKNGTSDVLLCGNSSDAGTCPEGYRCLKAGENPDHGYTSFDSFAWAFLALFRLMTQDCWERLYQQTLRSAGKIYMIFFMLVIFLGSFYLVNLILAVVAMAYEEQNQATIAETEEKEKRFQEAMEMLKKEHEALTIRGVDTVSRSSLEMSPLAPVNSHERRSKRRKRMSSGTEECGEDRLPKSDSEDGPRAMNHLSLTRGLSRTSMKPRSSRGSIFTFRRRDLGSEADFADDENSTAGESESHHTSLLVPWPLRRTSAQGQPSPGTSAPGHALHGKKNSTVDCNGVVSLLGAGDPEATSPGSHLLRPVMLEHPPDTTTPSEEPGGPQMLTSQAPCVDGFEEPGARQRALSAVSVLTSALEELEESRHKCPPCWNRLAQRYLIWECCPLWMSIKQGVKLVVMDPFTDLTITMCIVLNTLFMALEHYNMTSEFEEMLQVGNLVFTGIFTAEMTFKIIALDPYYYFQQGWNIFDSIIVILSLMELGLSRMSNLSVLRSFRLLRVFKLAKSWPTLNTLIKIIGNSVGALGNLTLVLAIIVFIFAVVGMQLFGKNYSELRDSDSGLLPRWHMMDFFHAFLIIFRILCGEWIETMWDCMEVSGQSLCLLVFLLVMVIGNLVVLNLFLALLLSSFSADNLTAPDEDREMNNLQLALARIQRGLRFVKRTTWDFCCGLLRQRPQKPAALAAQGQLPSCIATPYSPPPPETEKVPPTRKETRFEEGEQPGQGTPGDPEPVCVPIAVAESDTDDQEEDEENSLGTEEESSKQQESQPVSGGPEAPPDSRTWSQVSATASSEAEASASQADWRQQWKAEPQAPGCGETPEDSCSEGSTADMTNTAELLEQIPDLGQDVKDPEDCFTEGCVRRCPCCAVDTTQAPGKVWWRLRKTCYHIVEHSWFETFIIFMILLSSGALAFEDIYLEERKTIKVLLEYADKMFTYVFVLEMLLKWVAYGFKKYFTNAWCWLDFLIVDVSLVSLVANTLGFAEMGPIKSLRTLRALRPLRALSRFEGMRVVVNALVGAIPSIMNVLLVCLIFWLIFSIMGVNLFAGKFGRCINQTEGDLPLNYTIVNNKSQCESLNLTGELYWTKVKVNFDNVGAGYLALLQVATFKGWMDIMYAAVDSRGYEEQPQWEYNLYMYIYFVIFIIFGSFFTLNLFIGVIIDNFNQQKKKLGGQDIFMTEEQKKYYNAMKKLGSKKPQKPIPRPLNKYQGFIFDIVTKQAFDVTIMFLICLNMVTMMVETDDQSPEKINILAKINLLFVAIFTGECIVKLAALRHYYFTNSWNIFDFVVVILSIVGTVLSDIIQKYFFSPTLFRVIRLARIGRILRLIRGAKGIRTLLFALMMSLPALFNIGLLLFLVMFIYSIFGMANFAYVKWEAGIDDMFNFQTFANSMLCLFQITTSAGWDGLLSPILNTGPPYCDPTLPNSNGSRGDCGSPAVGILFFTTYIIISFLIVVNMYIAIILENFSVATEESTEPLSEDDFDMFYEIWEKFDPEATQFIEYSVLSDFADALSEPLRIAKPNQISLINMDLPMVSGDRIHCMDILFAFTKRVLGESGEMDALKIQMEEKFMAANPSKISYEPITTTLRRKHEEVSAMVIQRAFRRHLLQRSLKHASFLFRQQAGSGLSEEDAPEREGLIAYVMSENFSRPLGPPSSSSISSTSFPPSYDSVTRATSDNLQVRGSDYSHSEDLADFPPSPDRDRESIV
How it was run: as §1

[5] = target: hERG (Homo sapiens, UniProt Q12809); test: in vitro; conditions: 100% = no change, <100% = inhibition
How it was run: as §1

[6] = target: T4, α4β2 (Homo sapiens, UniProt P17787+P43681); test: Ion channel panel (IonWorks Barracuda): α4β2; type: cell-based; conditions: 100% = no change, <100% = inhibition
T4 construct: host or cells: HEK293 or CHO
How it was run: as §1

[7] = target: T5, NR2A (Homo sapiens, UniProt Q12879); test: Ion channel panel (IonWorks Barracuda): NR2A; type: cell-based; conditions: 100% = no change, <100% = inhibition
T5 construct: host or cells: HEK293 or CHO
How it was run: as §1

[8] = target: T6, TRPV1 (Homo sapiens, UniProt Q8NER1); test: Ion channel panel (IonWorks Barracuda): TRPV1; type: cell-based; conditions: 100% = no change, <100% = inhibition
T6 construct: host or cells: HEK293 or CHO
How it was run: as §1

[9] = target: T7, Nav1.7 (Homo sapiens, UniProt Q15858); test: cell-based; type: cell-based; conditions: 100% = no change; for Activity of Nav1.7 with peptide, expressed as a percentage of the reference compound: peptide at 0.2 μM; for Activity of Nav1.7 with peptide (percentage of the reference compound): peptide at 20 μM
T7 construct: host or cells: HEK293 or CHO
T7 sequence (Q15858 whole entry): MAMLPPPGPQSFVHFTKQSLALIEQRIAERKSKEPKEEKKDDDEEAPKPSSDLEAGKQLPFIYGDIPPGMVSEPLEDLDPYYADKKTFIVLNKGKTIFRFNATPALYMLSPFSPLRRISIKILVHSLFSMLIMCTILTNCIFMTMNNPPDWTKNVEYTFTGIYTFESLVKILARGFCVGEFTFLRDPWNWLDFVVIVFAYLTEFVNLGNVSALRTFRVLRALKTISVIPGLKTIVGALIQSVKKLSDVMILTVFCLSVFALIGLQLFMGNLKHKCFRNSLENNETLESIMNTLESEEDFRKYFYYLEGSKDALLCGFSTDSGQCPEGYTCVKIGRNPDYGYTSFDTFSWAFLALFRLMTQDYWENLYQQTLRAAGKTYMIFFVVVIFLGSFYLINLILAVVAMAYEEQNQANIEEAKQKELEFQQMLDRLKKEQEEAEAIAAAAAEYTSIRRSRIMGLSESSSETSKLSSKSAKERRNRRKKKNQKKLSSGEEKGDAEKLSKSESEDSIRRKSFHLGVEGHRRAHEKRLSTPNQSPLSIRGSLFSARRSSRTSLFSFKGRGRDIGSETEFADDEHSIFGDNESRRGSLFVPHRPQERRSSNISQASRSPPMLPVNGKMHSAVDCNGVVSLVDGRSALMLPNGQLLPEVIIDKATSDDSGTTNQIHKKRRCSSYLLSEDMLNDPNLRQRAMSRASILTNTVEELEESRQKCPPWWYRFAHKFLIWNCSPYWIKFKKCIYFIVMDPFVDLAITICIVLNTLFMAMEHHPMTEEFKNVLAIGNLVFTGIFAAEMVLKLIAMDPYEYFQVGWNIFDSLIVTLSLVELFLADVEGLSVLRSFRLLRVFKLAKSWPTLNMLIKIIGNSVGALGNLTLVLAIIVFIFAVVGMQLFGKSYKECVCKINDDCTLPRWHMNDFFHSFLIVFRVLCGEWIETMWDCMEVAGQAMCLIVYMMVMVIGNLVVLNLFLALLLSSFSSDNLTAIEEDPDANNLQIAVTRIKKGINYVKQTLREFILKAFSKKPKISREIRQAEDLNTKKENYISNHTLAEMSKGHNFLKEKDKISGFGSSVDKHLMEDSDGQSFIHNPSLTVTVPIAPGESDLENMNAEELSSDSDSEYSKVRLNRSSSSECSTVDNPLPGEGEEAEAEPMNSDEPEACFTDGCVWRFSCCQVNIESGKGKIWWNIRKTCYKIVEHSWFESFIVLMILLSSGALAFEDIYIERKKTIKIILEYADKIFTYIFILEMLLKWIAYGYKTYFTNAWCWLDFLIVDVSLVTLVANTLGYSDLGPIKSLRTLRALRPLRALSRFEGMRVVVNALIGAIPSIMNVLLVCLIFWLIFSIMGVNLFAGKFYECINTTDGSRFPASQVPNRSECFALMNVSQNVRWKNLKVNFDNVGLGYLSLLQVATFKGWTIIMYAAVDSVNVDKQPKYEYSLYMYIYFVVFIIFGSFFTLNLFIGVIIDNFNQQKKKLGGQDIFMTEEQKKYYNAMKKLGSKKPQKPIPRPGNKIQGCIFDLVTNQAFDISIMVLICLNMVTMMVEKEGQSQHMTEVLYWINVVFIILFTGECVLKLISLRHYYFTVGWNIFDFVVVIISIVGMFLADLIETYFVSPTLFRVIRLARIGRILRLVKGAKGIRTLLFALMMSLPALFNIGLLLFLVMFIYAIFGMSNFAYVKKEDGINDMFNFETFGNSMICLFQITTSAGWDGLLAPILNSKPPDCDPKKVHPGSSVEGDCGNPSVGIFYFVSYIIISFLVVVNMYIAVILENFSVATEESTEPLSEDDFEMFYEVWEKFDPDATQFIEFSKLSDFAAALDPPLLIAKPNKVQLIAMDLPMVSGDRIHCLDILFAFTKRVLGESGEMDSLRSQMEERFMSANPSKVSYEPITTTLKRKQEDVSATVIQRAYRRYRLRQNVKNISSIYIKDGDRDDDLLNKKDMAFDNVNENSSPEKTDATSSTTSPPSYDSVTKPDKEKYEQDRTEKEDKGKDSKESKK

[10] = target: T8, TRPA1 (Homo sapiens, UniProt O75762); test: Ion channel panel (IonWorks Barracuda): TRPA1; type: cell-based; conditions: 100% = no change, <100% = inhibition
T8 construct: host or cells: HEK293 or CHO
How it was run: as §1

[11] = system: GABA; test: Ion channel panel (IonWorks Barracuda): GABA; type: cell-based; conditions: 100% = no change, <100% = inhibition
How it was run: as §1

[12] = target: T9, α3β4 (Homo sapiens, UniProt P30926+P32297); test: Ion channel panel (IonWorks Barracuda): α3β4; type: cell-based; conditions: 100% = no change, <100% = inhibition
T9 construct: host or cells: HEK293 or CHO
How it was run: as §1

[13] = target: T10, Kv1.2 (Homo sapiens, UniProt P16389); test: cell-based; type: cell-based; conditions: 100% = no change, <100% = inhibition
T10 construct: host or cells: HEK293 or CHO
T10 sequence (P16389 whole entry): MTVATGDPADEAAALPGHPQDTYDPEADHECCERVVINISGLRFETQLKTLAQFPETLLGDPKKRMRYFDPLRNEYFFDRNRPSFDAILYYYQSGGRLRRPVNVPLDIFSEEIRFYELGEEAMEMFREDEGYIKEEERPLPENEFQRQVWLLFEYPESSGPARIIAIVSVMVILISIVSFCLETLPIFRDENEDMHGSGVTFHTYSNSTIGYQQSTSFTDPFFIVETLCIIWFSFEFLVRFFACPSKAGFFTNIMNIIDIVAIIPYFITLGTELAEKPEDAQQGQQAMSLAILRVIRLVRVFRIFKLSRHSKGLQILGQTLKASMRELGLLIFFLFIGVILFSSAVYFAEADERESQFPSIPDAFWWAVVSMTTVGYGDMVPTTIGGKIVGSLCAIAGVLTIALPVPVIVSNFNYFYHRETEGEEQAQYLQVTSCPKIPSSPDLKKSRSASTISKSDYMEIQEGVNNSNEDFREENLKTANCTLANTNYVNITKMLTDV
How it was run: as §1

[14] = target: T11, Kv1.3 (Homo sapiens, UniProt P22001); test: cell-based; type: cell-based; conditions: 100% = no change, <100% = inhibition
T11 construct: host or cells: HEK293 or CHO
How it was run: as §1

[15] = target: T12, Kv1.1 (Homo sapiens, UniProt Q09470); test: cell-based; type: cell-based; conditions: 100% = no change, <100% = inhibition
T12 construct: host or cells: HEK293 or CHO
How it was run: as §1

[16] = target: T13, 5HT3a (Homo sapiens, UniProt P46098); test: Ion channel panel (IonWorks Barracuda): 5HT3a; type: cell-based
T13 construct: host or cells: HEK293 or CHO
T13 sequence (P46098 whole entry, looked up): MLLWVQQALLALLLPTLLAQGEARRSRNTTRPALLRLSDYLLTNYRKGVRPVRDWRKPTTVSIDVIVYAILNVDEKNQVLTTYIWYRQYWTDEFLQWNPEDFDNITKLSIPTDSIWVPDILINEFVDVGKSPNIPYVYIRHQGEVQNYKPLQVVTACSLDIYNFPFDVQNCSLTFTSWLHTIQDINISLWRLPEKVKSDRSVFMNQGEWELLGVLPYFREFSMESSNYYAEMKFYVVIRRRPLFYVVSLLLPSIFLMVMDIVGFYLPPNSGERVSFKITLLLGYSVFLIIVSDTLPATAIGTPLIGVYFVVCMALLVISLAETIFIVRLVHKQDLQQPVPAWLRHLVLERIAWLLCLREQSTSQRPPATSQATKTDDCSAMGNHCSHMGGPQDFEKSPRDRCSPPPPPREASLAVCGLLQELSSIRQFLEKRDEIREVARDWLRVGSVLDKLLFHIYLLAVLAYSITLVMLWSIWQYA
How it was run: as §1

[17] = target: T14, Kir2.1 (Homo sapiens, UniProt P63252); test: Ion channel panel (IonWorks Barracuda): Kir2.1; type: cell-based; conditions: 100% = no change, <100% = inhibition
T14 construct: host or cells: HEK293 or CHO
T14 sequence (P63252 whole entry): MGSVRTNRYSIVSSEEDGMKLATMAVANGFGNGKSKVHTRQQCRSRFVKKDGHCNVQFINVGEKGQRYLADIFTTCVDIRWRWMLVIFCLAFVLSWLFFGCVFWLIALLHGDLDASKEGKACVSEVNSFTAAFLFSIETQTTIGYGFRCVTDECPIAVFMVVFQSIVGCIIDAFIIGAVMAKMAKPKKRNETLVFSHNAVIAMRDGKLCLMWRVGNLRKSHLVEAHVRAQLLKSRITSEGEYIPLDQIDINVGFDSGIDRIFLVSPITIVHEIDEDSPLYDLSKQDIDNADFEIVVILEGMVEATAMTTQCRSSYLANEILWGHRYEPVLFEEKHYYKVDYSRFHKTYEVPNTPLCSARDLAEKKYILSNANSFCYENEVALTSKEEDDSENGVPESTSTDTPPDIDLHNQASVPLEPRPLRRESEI
How it was run: as §1

[18] = target: T15, NR2B (Homo sapiens, UniProt Q13224); test: Ion channel panel (IonWorks Barracuda): NR2B; type: cell-based; conditions: 100% = no change, <100% = inhibition
T15 construct: host or cells: HEK293 or CHO
How it was run: as §1

[19] = first of two Nav1.5 columns (probably TP1)
[20] = second of two Nav1.5 columns (probably TP2)
[21] = first of two Nav1.7 columns (probably TP1)
[22] = second of two Nav1.7 columns (probably TP2)

## 18 (GSNCAGYMRECKEKLCCSGYVCSSRWKWCVLPAPWRR) [compound 18]
[1]; peptide at 0.2 μM
  Activity of Kv2.1 with peptide, expressed as a percentage of the reference compound: 93%
[1]; peptide at 20 μM
  Activity of Kv2.1 with peptide (percentage of the reference compound): 65%
[2]; peptide at 0.2 μM
  Activity of Cav2.1 with peptide, expressed as a percentage of the reference compound: 97%
[2]; peptide at 20 μM
  Activity of Cav2.1 with peptide (percentage of the reference compound): 98%
[3]; peptide at 0.2 μM
  Activity of Cav2.2 with peptide, expressed as a percentage of the reference compound: 132%
[3]; peptide at 20 μM
  Activity of Cav2.2 with peptide (percentage of the reference compound): 124%
[4]; [19]
  Activity of Nav1.5 with peptide, expressed as a percentage of the reference compound: 104%
  Activity of Nav1.5 with peptide (percentage of the reference compound): 87%
[4]; [20]
  Activity of Nav1.5 with peptide, expressed as a percentage of the reference compound: 106%
  Activity of Nav1.5 with peptide (percentage of the reference compound): 112%
[5]; peptide at 0.2 μM
  Activity of hERG with peptide, expressed as a percentage of the reference compound: 98%
[5]; peptide at 20 μM
  Activity of hERG with peptide (percentage of the reference compound): 62%
[6]; peptide at 0.2 μM
  Activity of a4b2 with peptide, expressed as a percentage of the reference compound: 109%
[6]; peptide at 20 μM
  Activity of a4b2 with peptide (percentage of the reference compound): 92%
[7]; peptide at 0.2 μM
  Activity of NR2A with peptide, expressed as a percentage of the reference compound: 98%
[7]; peptide at 20 μM
  Activity of NR2A with peptide (percentage of the reference compound): 79%
[8]; peptide at 0.2 μM
  Activity of TRPV1 with peptide, expressed as a percentage of the reference compound: 93%
[8]; peptide at 20 μM
  Activity of TRPV1 with peptide (percentage of the reference compound): 61%
[9]; [21]
  Activity of Nav1.7 with peptide, expressed as a percentage of the reference compound: 85%
  Activity of Nav1.7 with peptide (percentage of the reference compound): 43%
[9]; [22]
  Activity of Nav1.7 with peptide, expressed as a percentage of the reference compound: 84%
  Activity of Nav1.7 with peptide (percentage of the reference compound): 55%
[10]; peptide at 0.2 μM
  Activity of TRPA1 with peptide, expressed as a percentage of the reference compound: 130%
[10]; peptide at 20 μM
  Activity of TRPA1 with peptide (percentage of the reference compound): 89%
[11]; peptide at 0.2 μM
  Activity of GABA with peptide, expressed as a percentage of the reference compound: 113%
[11]; peptide at 20 μM
  Activity of GABA with peptide (percentage of the reference compound): 106%
[12]; peptide at 0.2 μM
  Activity of a3b4 with peptide, expressed as a percentage of the reference compound: 110%
[12]; peptide at 20 μM
  Activity of a3b4 with peptide (percentage of the reference compound): 89%
[13]; peptide at 0.2 μM
  Activity of Kv1.2 with peptide, expressed as a percentage of the reference compound: 67%
[13]; peptide at 20 μM
  Activity of Kv1.2 with peptide (percentage of the reference compound): 30%
[14]; peptide at 0.2 μM
  Activity of Kv1.3 with peptide, expressed as a percentage of the reference compound: 87%
[14]; peptide at 20 μM
  Activity of Kv1.3 with peptide (percentage of the reference compound): 7%
[15]; peptide at 0.2 μM
  Activity of Kv1.1 with peptide, expressed as a percentage of the reference compound: 98%
[15]; peptide at 20 μM
  Activity of Kv1.1 with peptide (percentage of the reference compound): 78%
[16]
  Activity of 5HT3a with peptide (percentage of the reference compound): 79%
  Activity of 5HT3a with peptide, expressed as a percentage of the reference compound: 95%
[17]; peptide at 0.2 μM
  Activity of Kir2.1 with peptide, expressed as a percentage of the reference compound: 104%
[17]; peptide at 20 μM
  Activity of Kir2.1 with peptide (percentage of the reference compound): 93%
[18]; peptide at 0.2 μM
  Activity of NR2B with peptide, expressed as a percentage of the reference compound: 107%
[18]; peptide at 20 μM
  Activity of NR2B with peptide (percentage of the reference compound): 78%
